Results reported in the supplement of paper PMC10567573.

B1: BTBD10 (parent)
chain: DRKLHSRPRKLYKHSSTSSRIAKG

Variants of: B1
Test: protein stability index of a GFP-peptide fusion (GPS, HEK-293T) (PSI 1-6); higher = more stable
Conditions: c terminus: a fixed tail appended
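Further: lentivirally expressed fusions sorted by FACS into six bins by GFP to DsRed ratio, PSI derived from sequencing read proportions per bin multiplied by bin number.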

Q: Which protein stability index does the source give for DRKLHFRPRKLYKHSSTSSRIAKG here?
A: 3.18

Q: For DRKLHTRPRKLYKHSSTSSRIAKG, which protein stability index is on record?
A: 3.76

Q: With DRKLHVRPRKLYKHSSTSSRIAKG as the variant, how does the protein stability index read?
A: 3.91

Q: With DRKLHDRPRKLYKHSSTSSRIAKG as the variant, how does the protein stability index read?
A: 4.69

Q: With DRKLHMRPRKLYKHSSTSSRIAKG as the variant, how does the protein stability index read?
A: 3.46

Q: Which protein stability index does the source give for DRKLHYRPRKLYKHSSTSSRIAKG here?
A: 3.78

Q: With DRKLHNRPRKLYKHSSTSSRIAKG as the variant, how does the protein stability index read?
A: 4.04

Q: Which protein stability index does the source give for DRKLHERPRKLYKHSSTSSRIAKG here?
A: 4.41

Q: Which protein stability index does the source give for DRKLHIRPRKLYKHSSTSSRIAKG here?
A: 3.58

Q: With DRKLHWRPRKLYKHSSTSSRIAKG as the variant, how does the protein stability index read?
A: 2.92

Q: With DRKLHPRPRKLYKHSSTSSRIAKG as the variant, how does the protein stability index read?
A: 4.42

Q: Which protein stability index does the source give for DRKLHHRPRKLYKHSSTSSRIAKG here?
A: 3.68

Q: Which protein stability index does the source give for DRKLHQRPRKLYKHSSTSSRIAKG here?
A: 3.89

Q: Which protein stability index does the source give for DRKLHRRPRKLYKHSSTSSRIAKG here?
A: 3.39

Q: Which protein stability index does the source give for DRKLHARPRKLYKHSSTSSRIAKG here?
A: 3.67

Q: Which protein stability index does the source give for DRKLHCRPRKLYKHSSTSSRIAKG here?
A: 3.43

Q: Which protein stability index does the source give for DRKLHKRPRKLYKHSSTSSRIAKG here?
A: 3.55

Q: Which protein stability index does the source give for DRKLHGRPRKLYKHSSTSSRIAKG here?
A: 3.48

Q: With DRKLHLRPRKLYKHSSTSSRIAKG as the variant, how does the protein stability index read?
A: 2.4

Q: Which protein stability index does the source give for DRKLHSRPCKLYKHSSTSSRIAKG here?
A: 3.74

Q: Which protein stability index does the source give for DRKLHSRPEKLYKHSSTSSRIAKG here?
A: 4.19

Q: Which protein stability index does the source give for DRKLHSRPDKLYKHSSTSSRIAKG here?
A: 4.01

Q: Which protein stability index does the source give for DRKLHSRPAKLYKHSSTSSRIAKG here?
A: 4.1

Q: With DRDLHSRPRKLYKHSSTSSRIAKG as the variant, how does the protein stability index read?
A: 4.42

Q: Which protein stability index does the source give for DRALHSRPRKLYKHSSTSSRIAKG here?
A: 4.52

Q: For DRYLHSRPRKLYKHSSTSSRIAKG, which protein stability index is on record?
A: 3.37

Q: Which protein stability index does the source give for DRCLHSRPRKLYKHSSTSSRIAKG here?
A: 3.95

Q: With DRRLHSRPRKLYKHSSTSSRIAKG as the variant, how does the protein stability index read?
A: 3.63

Q: For DRILHSRPRKLYKHSSTSSRIAKG, which protein stability index is on record?
A: 3.47

Q: With DRMLHSRPRKLYKHSSTSSRIAKG as the variant, how does the protein stability index read?
A: 3.56

Q: For DRFLHSRPRKLYKHSSTSSRIAKG, which protein stability index is on record?
A: 3.24

Q: With DRTLHSRPRKLYKHSSTSSRIAKG as the variant, how does the protein stability index read?
A: 3.83

Q: For DRNLHSRPRKLYKHSSTSSRIAKG, which protein stability index is on record?
A: 3.55

Q: For DRHLHSRPRKLYKHSSTSSRIAKG, which protein stability index is on record?
A: 4.41

Q: With DRPLHSRPRKLYKHSSTSSRIAKG as the variant, how does the protein stability index read?
A: 3.92

Q: Which protein stability index does the source give for DRWLHSRPRKLYKHSSTSSRIAKG here?
A: 3.64

Q: With DRVLHSRPRKLYKHSSTSSRIAKG as the variant, how does the protein stability index read?
A: 3.92

Q: With DRLLHSRPRKLYKHSSTSSRIAKG as the variant, how does the protein stability index read?
A: 3.77

Q: With DRSLHSRPRKLYKHSSTSSRIAKG as the variant, how does the protein stability index read?
A: 3.57

Q: With DRQLHSRPRKLYKHSSTSSRIAKG as the variant, how does the protein stability index read?
A: 3.87

Q: For DRELHSRPRKLYKHSSTSSRIAKG, which protein stability index is on record?
A: 4.03

Q: With DRKLHSRFRKLYKHSSTSSRIAKG as the variant, how does the protein stability index read?
A: 2.21

Q: For DRKLHSRWRKLYKHSSTSSRIAKG, which protein stability index is on record?
A: 3.95

Q: For DRKLHSRVRKLYKHSSTSSRIAKG, which protein stability index is on record?
A: 3.05

Q: With DRKLHSRLRKLYKHSSTSSRIAKG as the variant, how does the protein stability index read?
A: 2.76

Q: For DRKLHSRGRKLYKHSSTSSRIAKG, which protein stability index is on record?
A: 3.68

Q: For DRKLHSRSRKLYKHSSTSSRIAKG, which protein stability index is on record?
A: 3.5

Q: For DRKLHSRHRKLYKHSSTSSRIAKG, which protein stability index is on record?
A: 4.12

Q: Which protein stability index does the source give for DRKLHSRDRKLYKHSSTSSRIAKG here?
A: 4.51

Q: Which protein stability index does the source give for DRKLHSRERKLYKHSSTSSRIAKG here?
A: 4.08

Q: With DRKLHSRKRKLYKHSSTSSRIAKG as the variant, how does the protein stability index read?
A: 3.67

Q: With DRKLHSRTRKLYKHSSTSSRIAKG as the variant, how does the protein stability index read?
A: 3.31

Q: For DRKLHSRYRKLYKHSSTSSRIAKG, which protein stability index is on record?
A: 2.82

Q: Which protein stability index does the source give for DRKLHSRMRKLYKHSSTSSRIAKG here?
A: 3.02

Q: With DRKLHSRQRKLYKHSSTSSRIAKG as the variant, how does the protein stability index read?
A: 4.24

Q: Which protein stability index does the source give for DRKLHSRCRKLYKHSSTSSRIAKG here?
A: 4.03

Q: With DRKLHSRRRKLYKHSSTSSRIAKG as the variant, how does the protein stability index read?
A: 3.18

Q: For DRKLHSRNRKLYKHSSTSSRIAKG, which protein stability index is on record?
A: 3.81

Q: Which protein stability index does the source give for DRKLHSRARKLYKHSSTSSRIAKG here?
A: 4.2

Q: With DRKLHSRIRKLYKHSSTSSRIAKG as the variant, how does the protein stability index read?
A: 3.65

Q: With PRKLHSRPRKLYKHSSTSSRIAKG as the variant, how does the protein stability index read?
A: 3.42

Q: For ARKLHSRPRKLYKHSSTSSRIAKG, which protein stability index is on record?
A: 3.27

Q: For RRKLHSRPRKLYKHSSTSSRIAKG, which protein stability index is on record?
A: 3.05

Q: With IRKLHSRPRKLYKHSSTSSRIAKG as the variant, how does the protein stability index read?
A: 2.54

Q: For HRKLHSRPRKLYKHSSTSSRIAKG, which protein stability index is on record?
A: 3.42

Q: Which protein stability index does the source give for VRKLHSRPRKLYKHSSTSSRIAKG here?
A: 3.93

Q: With FRKLHSRPRKLYKHSSTSSRIAKG as the variant, how does the protein stability index read?
A: 2.9

Q: With ERKLHSRPRKLYKHSSTSSRIAKG as the variant, how does the protein stability index read?
A: 3.89

Q: Which protein stability index does the source give for NRKLHSRPRKLYKHSSTSSRIAKG here?
A: 4

Q: With CRKLHSRPRKLYKHSSTSSRIAKG as the variant, how does the protein stability index read?
A: 3.94

Q: With WRKLHSRPRKLYKHSSTSSRIAKG as the variant, how does the protein stability index read?
A: 2.8

Q: For YRKLHSRPRKLYKHSSTSSRIAKG, which protein stability index is on record?
A: 3.03

Q: For SRKLHSRPRKLYKHSSTSSRIAKG, which protein stability index is on record?
A: 3.89

Q: For MRKLHSRPRKLYKHSSTSSRIAKG, which protein stability index is on record?
A: 3.8

Q: With KRKLHSRPRKLYKHSSTSSRIAKG as the variant, how does the protein stability index read?
A: 3.2

Q: For GRKLHSRPRKLYKHSSTSSRIAKG, which protein stability index is on record?
A: 3.47

Q: For TRKLHSRPRKLYKHSSTSSRIAKG, which protein stability index is on record?
A: 3.16

Q: For LRKLHSRPRKLYKHSSTSSRIAKG, which protein stability index is on record?
A: 3.2

Q: Which protein stability index does the source give for QRKLHSRPRKLYKHSSTSSRIAKG here?
A: 3.81

Q: For DWKLHSRPRKLYKHSSTSSRIAKG, which protein stability index is on record?
A: 3.68

Q: Which protein stability index does the source give for DGKLHSRPRKLYKHSSTSSRIAKG here?
A: 3.95

Q: For DQKLHSRPRKLYKHSSTSSRIAKG, which protein stability index is on record?
A: 4.19

Q: Which protein stability index does the source give for DHKLHSRPRKLYKHSSTSSRIAKG here?
A: 4.46

Q: With DYKLHSRPRKLYKHSSTSSRIAKG as the variant, how does the protein stability index read?
A: 3.16

Q: For DFKLHSRPRKLYKHSSTSSRIAKG, which protein stability index is on record?
A: 2.65

Q: For DSKLHSRPRKLYKHSSTSSRIAKG, which protein stability index is on record?
A: 4.14

Q: Which protein stability index does the source give for DDKLHSRPRKLYKHSSTSSRIAKG here?
A: 4.04

Q: For DNKLHSRPRKLYKHSSTSSRIAKG, which protein stability index is on record?
A: 3.96

Q: For DKKLHSRPRKLYKHSSTSSRIAKG, which protein stability index is on record?
A: 3.83

Q: For DAKLHSRPRKLYKHSSTSSRIAKG, which protein stability index is on record?
A: 3.42

Q: With DEKLHSRPRKLYKHSSTSSRIAKG as the variant, how does the protein stability index read?
A: 4.39

Q: Which protein stability index does the source give for DVKLHSRPRKLYKHSSTSSRIAKG here?
A: 3.65

Q: With DTKLHSRPRKLYKHSSTSSRIAKG as the variant, how does the protein stability index read?
A: 4.09

Q: For DIKLHSRPRKLYKHSSTSSRIAKG, which protein stability index is on record?
A: 2.66
